# Measured values: US20220120736A1, “METHODS AND ASSAYS FOR MODULATING GENE TRANSCRIPTION BY MODULATING CONDENSATES” (Whitehead Institute for Biomedical Research, priority 2018, published 2022)
# Tested on: WNT-responsive reporter gene
# Assay: Luciferase assay with synthetic WNT-reporter (10 copies of TCF/LEF motif)
# Format: cell-based
# Details: overexpression in HEK293T cells
# Protocol: (FIG. 56A) Schematic of the ChIP experiment. TdTomato-tagged wild type or aromatic mutant β-catenin were stably integrated in mES cells under a doxycycline-inducible promoter. Doxycycline was added to the media 24 hours prior to crosslinking. ChIP was preformed using antibodies against TdTomato. TRE=Tetracycline responsive element. (FIG. 56B) (Top) ChIP-qPCR of ectopically-expressed wild type or aromatic mutant β-catenin at Myc, Sp5, and Klf4 enhancers. Error bars indicate standard deviation of three replicates. Stars indicate p-values obtained by a t-test <0.05. (Bottom) RT-qPCR of mRNA levels after ectopic expression of wild type or aromatic mutant β-catenin of Myc, Sp5, and Klf4. Error bars indicate standard deviation of three replicates. Stars indicate p-values obtained by a t-test <0.05. (FIG. 56C) Luciferase assay using a synthetic WNT-reporter containing 10 copies of the consensus TCF/LEF motif were wild type or aromatic mutant β-catenin was overexpressed in HEK293T cells. Average of 3 biological replicates is shown. Error bars show the standard deviation. Star indicates p-value obtained by a t-test <0.05.
# We independently tested the ability of the β-catenin aromatic mutant to transactivate a WNT-responsive reporter gene in a luciferase assay with wild type and mutant forms of β-catenin (FIG. 56C).
molecule,measurement,value
"wild type β-catenin: wild type β-catenin overexpressed in HEK293T cells (protein, UniProt P35222 2-781, looked up) Catenin beta-1: ATQADLMELDMAMEPDRKAAVSHWQQQSYLDSGIHSGATTTAPSLSGKGNPEEEDVDTSQVLYEWEQGFSQSFTQEQVADIDGQYAMTRAQRVRAAMFPETLDEGMQIPSTQFDAAHPTNVQRLAEPSQMLKHAVVNLINYQDDAELATRAIPELTKLLNDEDQVVVNKAAVMVHQLSKKEASRHAIMRSPQMVSAIVRTMQNTNDVETARCTAGTLHNLSHHREGLLAIFKSGGIPALVKMLGSPVDSVLFYAITTLHNLLLHQEGAKMAVRLAGGLQKMVALLNKTNVKFLAITTDCLQILAYGNQESKLIILASGGPQALVNIMRTYTYEKLLWTTSRVLKVLSVCSSNKPAIVEAGGMQALGLHLTDPSQRLVQNCLWTLRNLSDAATKQEGMEGLLGTLVQLLGSDDINVVTCAAGILSNLTCNNYKNKMMVCQVGGIEALVRTVLRAGDREDITEPAICALRHLTSRHQEAEMAQNAVRLHYGLPVVVKLLHPPSHWPLIKATVGLIRNLALCPANHAPLREQGAIPRLVQLLVRAHQDTQRRTSMGGTQQQFVEGVRMEEIVEGCTGALHILARDVHNRIVIRGLNTIPLFVQLLYSPIENIQRVAAGVLCELAQDKEAAEAIEAEGATAPLTELLHSRNEGVATYAAAVLFRMSEDKPQDYKKRLSVELTSSLFRTEPMAWNETADLGLDIGAQGEPLGYRQDDPSYRSFHSGGYGQDALGMDPMMEHEMGGHHPGADYPVDGLPDLGHAQDLMDGLPPGDSNQLAWFDTDL",increase in luciferase activity,8 fold
